What was measured:
E. coli GlpT = target: T1, E. coli GlpT (Escherichia coli, UniProt P08194); experiment: GlpT-dependent export from feeder vesicles, read by LC-MS of DOPA formed in utilizer vesicles; format: biochemical; settings: antiport with external Pi, 50 mM KPi pH 7.0, 30 °C; indirect read-out
T1 construct: plasmid pBADmycHisB-glpT, expressed in E. coli MC1061, Ni-Sepharose and size exclusion in DDM, coreconstituted with L. sakei ArcD in vesicles; 54 kDa
T1 sequence (P08194 1-452): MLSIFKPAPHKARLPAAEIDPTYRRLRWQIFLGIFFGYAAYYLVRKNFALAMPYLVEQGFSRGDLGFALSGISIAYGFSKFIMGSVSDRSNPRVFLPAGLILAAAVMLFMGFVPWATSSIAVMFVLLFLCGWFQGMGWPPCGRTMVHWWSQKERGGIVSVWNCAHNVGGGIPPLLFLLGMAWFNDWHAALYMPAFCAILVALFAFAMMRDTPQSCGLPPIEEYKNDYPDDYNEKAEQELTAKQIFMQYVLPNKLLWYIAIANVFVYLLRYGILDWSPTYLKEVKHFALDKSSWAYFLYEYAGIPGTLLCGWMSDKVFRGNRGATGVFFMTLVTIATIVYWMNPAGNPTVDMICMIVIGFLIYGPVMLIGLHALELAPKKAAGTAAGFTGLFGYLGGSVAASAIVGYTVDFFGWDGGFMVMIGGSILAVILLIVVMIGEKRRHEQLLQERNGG

[1] = substrate: N=C(N)NCCC[C@H](N)C(=O)O; experiment: cells, lysate or membranes; settings: pH 7.0; 20.0 °C
[2] = substrate: N=C(N)NCCC[C@H](N)C(=O)O; experiment: radiolabelled uptake into L-ornithine-loaded proteoliposomes, Michaelis-Menten fit; format: biochemical, Latilactobacillus sakei; settings: 50 mM KPi pH 7.0, 2 mM DTT, 30 °C, internal L-ornithine 10 mM, external L-arginine 1-100 μM, labelled compound
Description: radiolabelled uptake into L-ornithine-loaded proteoliposomes, Michaelis-Menten fit on L. sakei ArcD | the affinity constant (KM) and turnover number (kcat) were determined for the L. sakei antiporter

[3] = substrate: N=C(N)NCCC[C@H](N)C(=O)O; experiment: cells, lysate or membranes; set-up: species or system L. lactis JP9000 ΔarcD1ΔarcD2; Radiolabeled L-arginine uptake in L-ornithine-loaded whole cells, filtration and scintillation counting; settings: pH 7.0; 20.0 °C
Description: The arcD and arcE genes were cloned into nisin A-based expression vectors and flanked by a 10× His-tag at either the N- or the C-terminus. The constructs were transformed into L. lactis JP9000 ΔarcD1ΔarcD2[24] and the expression was optimized. […] All of these proteins were tested for L-arginine transport activity in vivo (Figure S4). […] By assuming a similar level of expression as the original ArcD2, ArcD from L. sakei would have a 10-fold higher turnover number and was therefore chosen for further in vitro characterization (Table S4). The genes encoding arcD/E were PCR-amplified from the source DNA templates with Phusion high-fidelity DNA polymerase (Thermo Fisher Scientific) and customized primers (Eurofins Genomics, Table S3). Next, fragment exchange (FX)[36] was exploited to clone the genes of interest into pNZ-N(His) or pNZ-C(His) vectors suitable for overexpression in L. lactis strains. According to the procedure, the PCR amplification products were first cloned into a sequencing vector (pINITIAL). To this end, both the insets and the backbone (1:5 molar ratio) were digested with 2.5 U of SapI (New England Biolabs) for 1 h at 37 °C, followed by a heat inactivation step at 60 °C for 20 min. Ligation was carried out by adding 5 U of T4 ligase (New England Biolabs) and incubating for 1 h at RT. […]

## O=P(O)(O)OC[C@H](O)CO [glycerol 3-phosphate]
E. coli GlpT
  GlpT-dependent export from feeder vesicles, read by LC-MS of DOPA formed in util: only when the feeder vesicles were equipped with the glycerol 3-phosphate exporter GlpT

B1: P. aeruginosa ArcD (Pseudomonas aeruginosa PAO1) (protein)
chain: MSQESSQKLRLGALTALVVGSMIGGGIFSLPQNMAASADVGAVLIGWAITAVGMLTLAFVFQTLANRKPELDGGVYAYAKAGFGDYMGFSSAWGYWISAWLGNVGYFVLLFSTLGYFFPIFGKGDTVAAIVCASVLLWALHFLVLRGIKEAAFINTVTTVAKVVPLFLFILICLFAFKLDIFTADIWGKSNPDLGSVMNQVRNMMLVTVWVFIGIEGASIFSSRAEKRSDVGKATVIGFITVLLLLVLVNVLSMGVMTQPELAKLQNPSMALVLEHVVGHWGAVLISVGLLISLLGALLSWVLLCAEIMFAAAKDHTMPEFLRRENANQVPANALWLTNICVQVFLVVVFFTSGDPDGMDPYTKMLLLATSMILIPYFWSAAYGLLLTLKGETYENDARERSKDLVIAGIAVAYAVWLLYAGGLKYLLLSALLYAPGAILFAKAKHEVGQPIFTGIEKLIFAAVVIGALVAAYGLYDGFLTL
[1]
  Km: 7.5 µM

B2: L. sakei ArcD (Latilactobacillus sakei) (protein)
chain: MTEEKPAKKIGLLALIALVISSSIGSGVFGLTSDLASASAPGPVLIAWVIVGFGILMLALSLNNLLMKEPELEGIFSYAEKGFGPFAGFISGWGYWLSAWLGNVTFATILMSALGYFFPIFKSRQNLPSILVASVLSWSLTYFVNRGVEGAAAINTLVTICKLIPLFVFIIFGIVLFKGHLFTQAFWNNMSSSFVAGDVMSQIKNCMMVMMWVFVGIEGASMLSARAEKKSDAGKATILGLVSLLAIYILASVLPYGYLTQDQLASIKQPAMLYIFEQMVGTWGGYFIGVGLIISILGAWLSWTMLPAETMLLMAKQNLLPAYFGRVNKKKAPTFALVVTAGLIQVFLFTLLFTTKAYNFAYSLCTASIIVCYMLVAAYQIKYSWAHLQEKGNRQQLLIGVLALLFEIAGILMAGVSYLLLCFIAYIPGIYFYGRARKNNGHQHFLSKGEWLITTIIVIGAIIGIWLVVSGKIVI
notes: N-terminal 10x His-tag (plasmid pNZarcD-LS), expressed in L. lactis JP9000 delta-arcD1 delta-arcD2, purified in DDM, reconstituted in DOPE/DOPG/DOPC liposomes; 54 kDa
[2]
  Km: 12.2 ± 1.5 µM
  kcat: 5.8 ± 1.2 s⁻¹
[3]
  Km: 26.8 µM

Source: publication PMC11106768, “Synthetic Vesicles for Sustainable Energy Recycling and Delivery of Building Blocks for Lipid Biosynthesis” (ACS Synthetic Biology, 2024)
